Data reported in the nanobody polyreactivity screen of Harvey et al. (2022).

Experiment: yeast display, Sf9 membrane polyspecificity reagent, FACS + sequencing; frameworks hold sequencing errors
How it was run: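 In a synthetic yeast display library (Saccharomyces cerevisiae BJ5465), nanobody expression was induced with galactose for 36–48 hours. FACS gates were set low and high (top ~1%) using anti-HA fluorescence for expression and streptavidin fluorescence for binding of the Sf9 membrane reagent. Each polyreactivity label is drawn from the gate of origin.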

## QVQLVESGGGLVQAGGSLRLSCAASGFTLQSNAMGWYRQAPGKERELVAAISFRGGSTYYADSVKGRFTISRDNAKNTVYLQMNSLKPEDTAVYYCAAVQVHLREYDYWGQGSQVTVSS
  polyreactivity (PSR sort gate): low polyreactivity

## QVQLVESGGGLVQAGGSLRLSCAASGFTLRANAMGWYRQAPGKERELVAAITRTGGRTYYADSVKGRFTISRDNAKNTVYLQMNSLKPEDTAVYYCAADHGPSKWYDYWGQGTEVTVSS
  polyreactivity (PSR sort gate): low polyreactivity

## QVQLVESGGGLVQAGGSLRLSCAASGFTLRGNAMGWYRPAPGKERELVAAISTGGSTYYADSVKGRFTISRDNAKNTVYLQMNSLKPEDTAVYYCARRGWFHYRYYYWGQGTQATVSS
  polyreactivity (PSR sort gate): high polyreactivity

## QVQLVESGGGLVQAGGSLRLSCAASGFTLRKYAMGWYRQAPGKEREFVATSSSRAASTYYADSVKGRFTISRDNAQNPVYLQMNSLNQEDTAVYYCNKLSPYRGFYWGQGTQVTVSS
  polyreactivity (PSR sort gate): high polyreactivity

## QVQLVESGGGLVQAGGSLRLSCAASGFTLSAYAMGWYRQAPGKERELVAGISYTGGRTYYADSVKGRFTISRDNAKNTVYLQMNSLKPEDTAVYYCNKAWSGYYKYGYWGQGTQVNVSS
  polyreactivity (PSR sort gate): low polyreactivity

## QVQLVESGGGLVQAGGSLRLSCAASGFTLSYYAMGWYRQAPRKERELVASISAIGGITYYADSVKGRFTISRDNAKNTVYLQMNSLKPEDSAVYYCIAGKRFTPYDYWGQGTQVTVSS
  polyreactivity (PSR sort gate): high polyreactivity

## QVQLVESGGGLVQAGGSLRLSCAASGFTLTPYAMGWYRQAPGKERELVAAITYTGGSTYYADSVKGRFTISRDNAKNTVYLQMNSLKPEDTAVYYCAAEFLSVPYDYCYWGQGTQVTVSS
  polyreactivity (PSR sort gate): high polyreactivity

## QVQLVESGGGLVQAGGSLRLSCAASGFTLVKYVMGWYRQAPGKERELVAAINRSGTSTYYADSVKGRFTISRDNAKYSVYLQMNSLKPEDTAVYYCNADWYRKRNYWGQGTQVTVSS
  polyreactivity (PSR sort gate): high polyreactivity

## QVQLVESGGGLVQAGGSLRLSCAASGFTLYAYVMGWYRQAPGKERELVAAISRSGGSTYYADSVKGRFTISRDNAKNTVYLQMNSLKPEDTAVYYCAAQSKYYQYYSWGQGTQVTVSS
  polyreactivity (PSR sort gate): high polyreactivity

## QVQLVESGGGLVQAGGSLRLSCAASGFTLYRYAMGWYRQAPGKERELVAAISNSGGSTYYADSVKARFTISRDNAKNTVYLQMNSLKPEDTAVYYCAADPGYNVYGYYYWGQGTQVTVSS
  polyreactivity (PSR sort gate): high polyreactivity

## QVQLVESGGGLVQAGGSLRLSCAASGFTLYWNAMGWYRPAPGTERELVAGITNGGDTYYADSVKGRFTISRDNAKNTVYLQMNSLKPEDTAVYYCNVDPVYYRFHSSLSVIPGYDYWGQGTQVTVSS
  polyreactivity (PSR sort gate): low polyreactivity

## QVQLVESGGGLVQAGGSLRLSCAASGFTLYYYTMGWYRQAPGKERELVASITGGGTTNYADSVKGRFTISRDNAKNTVYLQMNSLKPEDTAVYYCAKGYGASNDPGYVRKRYGYWGQGTQVTVSS
  polyreactivity (PSR sort gate): low polyreactivity

## QVQLVESGGGLVQAGGSLRLSCAASGFTNSMGWSTQAHGKERELVAAISYSGDSTNYADSVKGRFTISRDNAKNTVYLQMNSLKPEDTAVYYCNASSPYDYDWGQGTQVTVSS
  polyreactivity (PSR sort gate): low polyreactivity

## QVQLVESGGGLVQAGGSLRLSCAASGFTSKGYAMGWYRQAPGKERELVATIRSRGGGTYYADSVKGRFTISRDNAKNTVYLQMNSLKPEDTAVYYCAAERKNKYDYWGQGTQVTVSS
  polyreactivity (PSR sort gate): high polyreactivity

## QVQLVESGGGLVQAGGSLRLSCAASGFTSRKNAMGWYRQAPGKERELVAAITQSSGRTYYADSVKGRFTISRDNAKNTVYLQMNSLKPEDTAVYYCAARRGGEDDYWGQGTQVTVSS
  polyreactivity (PSR sort gate): low polyreactivity

## QVQLVESGGGLVQAGGSLRLSCAASGFTSRYVMGWYRQAPGKERELVASISRSGGSTYYADSVKGRFTISRDNAKNTVYLQMNSLKPEDTAVYYCAALGLSYSSRYYHWQNEFDYWGQGSQVTVSS
  polyreactivity (PSR sort gate): high polyreactivity

## QVQLVESGGGLVQAGGSLRLSCAASGFTSSRNAMGWYRQAPGKERELVATISSGGDTYYADSVKGRFPISRDNAKTTVYLQMNSLKPEDTAVYYCNKDPLYAWGYDYWGQGTQVTVSS
  polyreactivity (PSR sort gate): low polyreactivity

## QVQLVESGGGLVQAGGSLRLSCAASGFTSTLNDMGWYRQAPGKERELVAAISNGGSTYYADSVKGRFTISRDNAKNTVYLQMNSLKPEDTAVYYCAVTATAPQEGDYWGQGTQVTVSS
  polyreactivity (PSR sort gate): low polyreactivity

## QVQLVESGGGLVQAGGSLRLSCAASGFTVSWYVMGWYRQAPGKERELVAAITWSGGNTYADSVKGRFTISRDNAKNTVYLQMNSLKPEDTAVYYCAADPAHGTKWYVYPSHDDYWGQGTQVTVSS
  polyreactivity (PSR sort gate): low polyreactivity

## QVQLVESGGGLVQAGGSLRLSCAASGFTYRNYAMGWYRQAPGKERELVAAISRGGGSTYYADSVKGRFTISRDNAKNTVYLQMNSLKPEDTAVYYCAVAYPFYVKTLFSPEADYNYWGQGTQVTVSS
  polyreactivity (PSR sort gate): high polyreactivity

## QVQLVESGGGLVQAGGSLRLSCAASGFTYRPNAMGWYRQAPGKERELVASIRYSGGSTYYADSVKGRFTISRDNAKNTVYLQMNSLKPEDTAVYYCAAVLYSWMRLGSTYTYDYWGQGTQVTVSS
  polyreactivity (PSR sort gate): low polyreactivity

## QVQLVESGGGLVQAGGSLRLSCAASGFTYSTNAMGWYRQAPGTERELVAAISGSGGSTYYADSVKGRFTISRDNAKNTVYLQMNSLKPEDTAVYYCAARCPYYSWGRYEYYYWGQGTQVTLSS
  polyreactivity (PSR sort gate): high polyreactivity

## QVQLVESGGGLVQAGGSLRLSCAASGFYAMGWYIQAPGKERELVAAIRYRGGSTYYADSVKGRFTFSRDNAKNTVDLQMNSLKPEDTAVYYCAASTGPDRQFDSWGQGTQVTVSS
  polyreactivity (PSR sort gate): low polyreactivity

## QVQLVESGGGLVQAGGSLRLSCAASGGIFADYAMGWYRQAPGKERELVADISARGGSTYNADSVKGRFTISRDNAKNTVYLQMNSLKPEDTAVYYCATDGPGYPPTLRYDYWGQGTQVTVSS
  polyreactivity (PSR sort gate): low polyreactivity

## QVQLVESGGGLVQAGGSLRLSCAASGGIFAYMGWYRQAPGKERELVASITSSGGSTYYADSVKGRFTISRDNAKNTVYLQMNSLKPEDTAVYYCAADPDFYKSVQYDYWGQGTQVTVSS
  polyreactivity (PSR sort gate): low polyreactivity

## QVQLVESGGGLVQAGGSLRLSCAASGGIFAYNAMGWYRQAPGKERELVATISYSGGSTYYADSVKGRFTISRDNAKNTVYLQMNSLKPEDTAVYYCATRLYGWRGRYNYWGQGTQVTVSS
  polyreactivity (PSR sort gate): high polyreactivity

## QVQLVESGGGLVQAGGSLRLSCAASGGIFDGNAMGWYRQAPGKERELVAAISSGGITKYADSEKGRFTISRDNAKNTVYLQMNSLKPEDTAVYYCAASWYRYRFIRYDYWGQGTQVTVSS
  polyreactivity (PSR sort gate): high polyreactivity

## QVQLVESGGGLVQAGGSLRLSCAASGGIFDINAMGWYRQAPGKERELVAAISWGGGSTYYADSVKGRFTISRDNAKNTVYLQMNSLKPEDTAVYYCAAESVSIQPTPDEDYWGQGTQVTVSS
  polyreactivity (PSR sort gate): high polyreactivity

## QVQLVESGGGLVQAGGSLRLSCAASGGIFDRYAMGWYRQAPGKERELVAAITGSGGRTYYADSVKGRFTISRDKAKNSVYLQMTSLKPVDPAVYYCARAFGQRRYDYWGHGTQVTVSS
  polyreactivity (PSR sort gate): high polyreactivity

## QVQLVESGGGLVQAGGSLRLSCAASGGIFDRYAMGWYRQAPGKERELVAGITWSGGRTYYADSVKGRFTISRDNAKNTVYLQMNSLKPEDTAVYYCAASLYTWTYQPVYYRDGYWGQGTQVTVSS
  polyreactivity (PSR sort gate): low polyreactivity

## QVQLVESGGGLVQAGGSLRLSCAASGGIFEANVMGWYRQAPGKERELVAAITSGGSTNYADSVKGRFTISRDNAKNTVYLQMNSLKPEDTAVYYCAADRPDGWVDYWGQGTQVTVSS
  polyreactivity (PSR sort gate): low polyreactivity

## QVQLVESGGGLVQAGGSLRLSCAASGGIFFSYAMGWYRQAPGKERELVAAIRTNGGTTYYADSVKGRFTISRDNAKNTVYLQMNSLKPEDTAVYYCAALPGGYYDRGEYDYWGQGTQVSVSS
  polyreactivity (PSR sort gate): low polyreactivity

## QVQLVESGGGLVQAGGSLRLSCAASGGIFGLYTMGWYRQAPGKERELVAAISKTGGSTYYADSVKGRFTISRDNAKNTVYLQMNSLKPEDTAVYYCAKAGRYANLPYGYWGQGTQVTVSS
  polyreactivity (PSR sort gate): high polyreactivity

## QVQLVESGGGLVQAGGSLRLSCAASGGIFGRNAMGWYRQAPGKEMELVAAISSSGGTTYYADSVKGRFTISRDYAKNTVYLQMNSMKPEDTAVYYCNAAYYWRSFHDDYFGQGTQVTVSS
  polyreactivity (PSR sort gate): high polyreactivity

## QVQLVESGGGLVQAGGSLRLSCAASGGIFGSYAMGWYRQAPGKERELVAAISGGSTYYADSVKGRFTISRDNAKNTVYLQMTSLKPEDTAVYYCAAGWSVWYQDFDYWGQGTQVTVSS
  polyreactivity (PSR sort gate): high polyreactivity

## QVQLVESGGGLVQAGGSLRLSCAASGGIFGSYAMGWYRQAPGKERELVAAISWRGGSTYYADSVKGRFTISRDNAKNTVYLQMNSLKPEDTAVYYCAARYRWGYSTSYSYRFDYWGQGTQVTVSS
  polyreactivity (PSR sort gate): high polyreactivity

## QVQLVESGGGLVQAGGSLRLSCAASGGIFGSYTMGWYRQAPGKERELVAGISDSGGSTYYADSVKGRFTISRDNAKNIVYLQMNSLKPEDTAVYYCAAVEAYGQEYDYWGQGTQVTVSS
  polyreactivity (PSR sort gate): low polyreactivity

## QVQLVESGGGLVQAGGSLRLSCAASGGIFGYYAMGWYRQAPGKERELVAAINYSGGSTYYADSVKGRFTISRDNAKNTVYLQMNSLKPEDTAVYYCNAVVRDYTFRYYYWGQGTQVTVSS
  polyreactivity (PSR sort gate): low polyreactivity

## QVQLVESGGGLVQAGGSLRLSCAASGGIFGYYAMGWYRQAPGKERELVAAISSSGGSTYYADSVKGRFTISRDNAKNTVYLQMNSLKPEDTAVYYCAAYRKVGGFSRGDYWGQGTQVTVSS
  polyreactivity (PSR sort gate): high polyreactivity

## QVQLVESGGGLVQAGGSLRLSCAASGGIFGYYTMGWYRQAPGKERELVAAITWRGSTYYADSVKGRFTISRDNAKNTVYLQMNSLKPEDTAVYYCAARYYSPYGYCGQGTQVTVSS
  polyreactivity (PSR sort gate): high polyreactivity

## QVQLVESGGGLVQAGGSLRLSCAASGGIFHYYAMGWYRQAPGKERELVAAISWNTGSTYYADSVKGRFTISRDNAKNTVYLQMNSLKPVDTAVYYCAASYRSPWLRYDYWGQGTQVTVSS
  polyreactivity (PSR sort gate): high polyreactivity

## QVQLVESGGGLVQAGGSLRLSCAASGGIFIDYALGWYRQAPGKERELVAAITYSGTSTSYADSVKGRFTISRDNAKITVYLQMNSLKPEDTAVYYCNTYPVLFYVGLDYWGQGTQVTVSS
  polyreactivity (PSR sort gate): low polyreactivity

## QVQLVESGGGLVQAGGSLRLSCAASGGIFIFYAMGWYRQAPGKERELVAAISNVSSTNYADSVKGRFTISRDNAQNTVYLQMNSLKPEDTAVYYCNAVCVPSEYYSWGQGSQVTVSS
  polyreactivity (PSR sort gate): low polyreactivity
